Article PMC13385800 (2026)

B1: TBLR1-LgBiT wild type [not stated] / ANKRD11-SmBiT [not stated] (parent complex)
chain 1: MSISSDEVNFLVYRYLQESGFSHSAFTFGIESHISQSNINGALVPPAALISIIQKGLQYVEAEVSINEDGTLFDGRPIESLSLIDAVMPDVVQTRQQAYRDKLAQQQAAAAAAAAAAASQQGSAKNGENTANGEENGAHTIANNHTDMMEVDGDVEIPPNKAVVLRGHESEVFICAWNPVSDLLASGSGDSTARIWNLSENSTSGSTQLVLRHCIREGGQDVPSNKDVTSLDWNSEGTLLATGSYDGFARIWTKDGNLASTLGQHKGPIFALKWNKKGNFILSAGVDKTTIIWDAHTGEAKQQFPFHSAPALDVDWQSNNTFASCSTDMCIHVCKLGQDRPIKTFQGHTNEVNAIKWDPTGNLLASCSDDMTLKIWSMKQDNCVHDLQAHNKEIYTIKWSPTGPGTNNPNANLMLASASFDSTVRLWDVDRGICIHTLTKHQEPVYSVAFSPDGRYLASGSFDKCVHIWNTQTGALVHSYRGTGGIFEVCWNAAGDKVGASASDGSVCVLDLRK
chain 2: MPKGGCPKAPQQEELPLSSDMVEKQTGKKDKDKVSLTKTPKLERGDGGKEVRERASKRKLPFTAGANGEQKDSDTEKQGPERKRIKKEPVTRKAGLLFGMGLSGIRAGYPLSERQQVALLMQMTAEESANSPVDTTPKHPSQSTVCQKGTPNSASKTKDKVNKRNERGETRLHRAAIRGDARRIKELISEGADVNVKDFAGWTALHEACNRGYYDVAKQLLAAGAEVNTKGLDDDTPLHDAANNGHYKVVKLLLRYGGNPQQSNRKGETPLKVANSPTMVNLLLGKGTYTSSEESSTESSEEEDAPSFAPSSSVDGNNTDSEFEKGLKHKAKNPEPQKATAPVKDEYEFDEDDEQDRVPPVDDKHLLKKDYRKETKSNSFISIPKMEVKSYTKNNTIAPKKASHRILSDTSDEEDASVTVGTGEKLRLSAHTILPGSKTREPSNAKQQKEKNKVKKKRKKETKGREVRFGKRSDKFCSSESESESSESGEDDRDSLGSSGCLKGSPLVLKDPSLFSSLSASSTSSHGSSAAQKQNPSHTDQHTKHWRTDNWKTISSPAWSEVSSLSDSTRTRLTSESDYSSEGSSVESLKPVRKRQEHRKRASLSEKKSPFLSSAEGAVPKLDKEGKVVKKHKTKHKHKNKEKGQCSISQELKLKSFTYEYEDSKQKSDKAILLENDLSTENKLKVLKHDRDHFKKEEKLSKMKLEEKEWLFKDEKSLKRIKDTNKDISRSFREEKDRSNKAEKERSLKEKSPKEEKLRLYKEERKKKSKDRPSKLEKKNDLKEDKISKEKEKIFKEDKEKLKKEKVYREDSAFDEYCNKNQFLENEDTKFSLSDDQRDRWFSDLSDSSFDFKGEDSWDSPVTDYRDMKSDSVAKLILETVKEDSKERRRDSRAREKRDYREPFFRKKDRDYLDKNSEKRKEQTEKHKSVPGYLSEKDKKRRESAEAGRDRKDALESCKERRDGRAKPEEAHREELKECGCESGFKDKSDGDFGKGLEPWERHHPAREKEKKDGPDKERKEKTKPERYKEKSSDKDKSEKSILEKCQKDKEFDKCFKEKKDTKEKHKDTHGKDKERKASLDQGKEKKEKAFPGIISEDFSEKKDDKKGKEKSWYIADIFTDESEDDRDSCMGSGFKMGEASDLPRTDGLQEKEEGREAYASDRHRKSSDKQHPERQKDKEPRDRRKDRGAADAGRDKKEKVFEKHKEKKDKESTEKYKDRKDRASVDSTQDKKNKQKLPEKAEKKHAAEDKAKSKHKEKSDKEHSKERKSSRSADAEKSLLEKLEEEALHEYREDSNDKISEVSSDSFTDRGQEPGLTAFLEVSFTEPPGDDKPRESACLPEKLKEKERHRHSSSSSKKSHDRERAKKEKAEKKEKGEDYKEGGSRKDSGQYEKDFLEADAYGVSYNMKADIEDELDKTIELFSTEKKDKNDSEREPSKKIEKELKPYGSSAINILKEKKKREKHREKWRDEKERHRDRHADGLLRHHRDELLRHHRDEQKPATRDKDSPPRVLKDKSRDEGPRLGDAKLKEKFKDGAEKEKGDPVKMSNGNDKVAPSKDPGKKDARPREKLLGDGDLMMTSFERMLSQKDLEIEERHKRHKERMKQMEKLRHRSGDPKLKEKAKPADDGRKKGLDIPAKKPPGLDPPFKDKKLKESTPIPPAAENKLHPASGADSKDWLAGPHMKEVLPASPRPDQSRPTGVPTPTSVLSCPSYEEVMHTPRTPSCSADDYADLVFDCADSQHSTPVPTAPTSACSPSFFDRFSVASSGLSENASQAPARPLSTNLYRSVSVDIRRTPEEEFSVGDKLFRQQSVPAASSYDSPMPPSMEDRAPLPPVPAEKFACLSPGYYSPDYGLPSPKVDALHCPPAAVVTVTPSPEGVFSSLQAKPSPSPRAELLVPSLEGALPPDLDTSEDQQATAAIIPPEPSYLEPLDEGPFSAVITEEPVEWAHPSEQALASSLIGGTSENPVSWPVGSDLLLKSPQRFPESPKRFCPADPLHSAAPGPFSASEAPYPAPPASPAPYALPVAEPGLEDVKDGVDAVPAAISTSEAAPYAPPSGLESFFSNCKSLPEAPLDVAPEPACVAAVAQVEALGPLENSFLDGSRGLSHLGQVEPVPWADAFAGPEDDLDLGPFSLPELPLQTKDAADGEAEPVEESLAPPEEMPPGAPGVINGGDVSTVVAEEPPALPPDQASTRLPAELEPEPSGEPKLDVALEAAVEAETVPEERARGDPDSSVEPAPVPPEQRPLGSGDQGAEAEGPPAASLCAPDGPAPNTVAQAQAADGAGPEDDTEASRAAAPAEGPPGGIQPEAAEPKPTAEAPKAPRVEEIPQRMTRNRAQMLANQSKQGPPPSEKECAPTPAPVTRAKARGSEDDDAQAQHPRKRRFQRSTQQLQQQLNTSTQQTREVIQQTLAAIVDAIKLDAIEPYHSDRANPYFEYLQIRKKIEEKRKILCCITPQAPQCYAEYVTYTGSYLLDGKPLSKLHIPVIAPPPSLAEPLKELFRQQEAVRGKLRLQHSIEREKLIVSCEQEILRVHCRAARTIANQAVPFSACTMLLDSEVYNMPLESQGDENKSVRDRFNARQFISWLQDVDDKYDRMKTCLLMRQQHEAAALNAVQRMEWQLKVQELDPAGHKSLCVNEVPSFYVPMVDVNDDFVLLPA
B2: EGFP-ANKRD11 full length (FL), wild type [not stated] / endogenous TBLR1 of HEK293T cells and of wild-type Flp-In T-REx 293 cells [human (endogenous in HEK293T and Flp-In T-REx 293)] (parent complex)
chain 1: B1 chain 2
chain 2: B1 chain 1

Variants of: B1
Test: NanoLuc complementation assay; n = 3–5 independent transfections per TBLR1 mutant; read off a plot

ratio to parent	Variant
~0.06	chain 1 L83Q
~0.1	chain 1 F10L
~0.37	chain 1 E63K

Variants of: B2
Test: co-immunoprecipitation, mass spectrometry; HEK293T cells; n = 3 independent transfections per mutant; read off a plot

screen value [log2]	Variant
~8.3	chain 1 S2475P
~8.2	chain 1 L2605R
~5.7	chain 1 R2523W
~2.6	chain 1 E2522K
